Where a chain is given by its changes, count along the chain named.
B1: 33B1 (antibody, V domains shown)
VH: EVQLVESGGGLVKPGGSLRLSCAASGFTFSSYTMNWVRQAPGKGLEWVSFIDSRSSYIYYADSVKGRFTISRDNAKNSLYLQMNSLRAEDTAVYYCSKDDWFEELWGQGTLVTVSS
VL: DIQMTQSPSSLSASVGDRVTITCRASQGIRNDLGWYQQKPGKAPKRLIYATSSLQSGVPSRFSGSGSGTEFTLTISSLQPEDFATYYCLHHNSFPWTFGQGTKVEIK
notes: Fully human monoclonal antibody from a XenoMouse hybridoma (IgG2 or IgG4 strain), purified
B2: 24B3 (antibody, V domains shown)
VH: B1 VH with S31T, T33S, D52S, S53G
VL: B1 VL with N31S, H90Q, S93R, F94Y
notes: as for B1

Tests used:
human KDR [1] = target: T1, human KDR (human, UniProt P35968 20-1356); test: cell-based or functional assay
soluble KDR Ig4-7 domain [2] = target: T2, soluble KDR Ig4-7 domain (human, UniProt P35968 328-764); test: ELISA, KDR Ig4-7 coat (1:1 diln.), antibody 0.01 ug/mL
T2 construct: domain: Ig4-7 domain; also called b-KDRIg4-7-myc-his; Ig4-7 domain of KDR; not shown: myc-his tag of the pSecTag construct
Experimental: (§1) The cross-reactivity of purified antibodies was tested against KDR mouse ortholog KDR mouse ortholog (mouse VEGFR2, or Flk-1) and human VEGFR1 (Flt-1). The ability of the antibodies to bind soluble KDR Ig4-7 domain and to the entire KDR extracellular domain (ECD) was also measured.
(§2) Cross-reactivity experiments were carried out and measured using an ELISA based assay as described in Example 6. […] Antibody controls included IgG1 and IgG4 (Sigma-Aldrich, Cat. #15154 and #14639, respectively).

[3] = target: T3, whole KDR-ECD (Cat. # 676490, Calbiochem) (human, UniProt P35968 20-764); test: ELISA, KDR-ECD coat 5 ug/mL, antibody 0.01 ug/mL
T3 construct: extracellular domain; Bought soluble protein; also called soluble KDR; VEGF Receptor 2 D1-7
Experimental: as §1, §2

[4] = target: T4, mouse KDR (Flk-1)/Fc (Cat. #443-KD/CF, R&D Systems, Inc.) (mouse, UniProt P35918 20-762); test: ELISA, Flk-1 coat 5 ug/mL, antibody 0.01 ug/mL
T4 construct: Bought reagent; also called mouse VEGFR2; KDR mouse ortholog; not shown: Fc of the bought fusion protein
Experimental: as §1, §2

soluble KDR Ig4-7 domain [5] = target: T2, soluble KDR Ig4-7 domain; test: ELISA, KDR Ig4-7 coat (1:1 diln.), antibody 1 ug/mL
Experimental: as §1, §2

human KDR [6] = target: T1, human KDR; test: cell-based or functional assay; remark: listed apart in the source
human KDR [7] = target: T1, human KDR; test: FACS competition on 293T/human KDR transfectants; antibody 5 ug/mL first, then competitor VEGF165 50 ng/mL; bound VEGF165 detected
Experimental: (§3) Transfected cells were then seeded at 50,000 cells/well and incubated with 5 μg/mL of candidate antibody for one hour at 4° C. […] After washing, the cells were incubated with Cy5-conjugated rabbit anti-goat antibody plus 7AAD for 15 minutes at 4° C.

human KDR [8] = target: T1, human KDR; test: FACS competition on 293T/human KDR transfectants; antibody 5 ug/mL first, then competitor VEGF165 50 ng/mL; inhibition of VEGF binding
Experimental: as §3

[9] = target: T3, whole KDR-ECD (Cat. # 676490, …); test: ELISA, KDR-ECD coat 5 ug/mL, antibody 1 ug/mL
Experimental: as §1, §2

human KDR [10] = target: T1, human KDR; test: FACS titration of purified antibody on HUVEC cells (FACS Kd)
Experimental: The binding affinities of the purified antibodies for endogenously-expressed KDR in HUVEC cells was measured. HUVEC cells were seeded at 150,000 cells/well and incubated with titrations of purified antibody for 4 hours at 4° C. The cells were then washed and incubated with goat anti-human IgG-Fc-Cy5+5 μg/mL 7-Amino-Actinomycin (7AAD) for 30 minutes at 4° C. Bound KDR was detected using FACS analysis.

[11] = target: T3, whole KDR-ECD (Cat. # 676490, …); test: ELISA, KDR-ECD coat 5 ug/mL, antibody 0.1 ug/mL
Experimental: as §1, §2

soluble KDR Ig4-7 domain [12] = target: T2, soluble KDR Ig4-7 domain; test: ELISA, KDR Ig4-7 coat (1:1 diln.), antibody 0.1 ug/mL
Experimental: as §1, §2

[13] = target: T4, mouse KDR (Flk-1)/Fc (Cat. #443-KD/CF, …); test: ELISA, Flk-1 coat 5 ug/mL, antibody 0.1 ug/mL
Experimental: as §1, §2

[14] = target: T4, mouse KDR (Flk-1)/Fc (Cat. #443-KD/CF, …); test: ELISA, Flk-1 coat 5 ug/mL, antibody 1 ug/mL
Experimental: as §1, §2

human KDR [15] = target: T1, human KDR; test: cell-based or functional assay; remark: listed apart in the source
cynomolgus KDR = target: T5, cynomolgus KDR (cynomolgus monkey, UniProt A0A2K5VE63 20-1356); test: FACS on Cyno KDR/293T transfectants, antibody 5 ug/mL
T5 construct: whole, on cells; also called Cyno KDR
Experimental: The binding of purified antibodies to cell-bound cynomolgus KDR (with parental cells as negative control) was tested by FACS analysis in this assay.
Cynomolgus KDR was cloned in 3 pieces. One piece was PCR amplified from cynomolgus lung cDNA, and the remaining two pieces were PCR amplified from cynomolgus kidney cDNA. The three PCR products were inserted into pCR3.1 Bid vector. […] Transfected cells were seeded at 50,000 cells/well and incubated with 5 μg/mL of candidate antibody for one hour at 4° C. The cells were then washed and incubated with secondary antibody (Cy5-conjugated goat anti-human antibody, or Cy5-conjugated rabbit anti-goat antibody, plus 7-Amino-Actinomycin (7AAD)) for 15 minutes at 4° C. Binding between cynomolgus KDR and purified antibody was detected by FACS analysis.

T2 sequence (P35968 328-764): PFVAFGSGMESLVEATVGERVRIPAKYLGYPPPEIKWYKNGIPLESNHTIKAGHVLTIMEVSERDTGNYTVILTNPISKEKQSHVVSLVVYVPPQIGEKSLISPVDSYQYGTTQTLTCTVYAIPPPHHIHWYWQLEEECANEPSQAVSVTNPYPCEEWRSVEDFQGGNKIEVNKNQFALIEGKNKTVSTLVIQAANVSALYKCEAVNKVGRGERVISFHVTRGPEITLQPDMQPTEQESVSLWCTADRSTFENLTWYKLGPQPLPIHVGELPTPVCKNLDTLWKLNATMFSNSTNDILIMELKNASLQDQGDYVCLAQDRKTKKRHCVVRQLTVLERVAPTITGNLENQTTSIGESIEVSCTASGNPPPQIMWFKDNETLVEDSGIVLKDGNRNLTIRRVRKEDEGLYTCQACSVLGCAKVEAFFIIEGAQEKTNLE
T4 sequence (P35918 20-762 limits assumed): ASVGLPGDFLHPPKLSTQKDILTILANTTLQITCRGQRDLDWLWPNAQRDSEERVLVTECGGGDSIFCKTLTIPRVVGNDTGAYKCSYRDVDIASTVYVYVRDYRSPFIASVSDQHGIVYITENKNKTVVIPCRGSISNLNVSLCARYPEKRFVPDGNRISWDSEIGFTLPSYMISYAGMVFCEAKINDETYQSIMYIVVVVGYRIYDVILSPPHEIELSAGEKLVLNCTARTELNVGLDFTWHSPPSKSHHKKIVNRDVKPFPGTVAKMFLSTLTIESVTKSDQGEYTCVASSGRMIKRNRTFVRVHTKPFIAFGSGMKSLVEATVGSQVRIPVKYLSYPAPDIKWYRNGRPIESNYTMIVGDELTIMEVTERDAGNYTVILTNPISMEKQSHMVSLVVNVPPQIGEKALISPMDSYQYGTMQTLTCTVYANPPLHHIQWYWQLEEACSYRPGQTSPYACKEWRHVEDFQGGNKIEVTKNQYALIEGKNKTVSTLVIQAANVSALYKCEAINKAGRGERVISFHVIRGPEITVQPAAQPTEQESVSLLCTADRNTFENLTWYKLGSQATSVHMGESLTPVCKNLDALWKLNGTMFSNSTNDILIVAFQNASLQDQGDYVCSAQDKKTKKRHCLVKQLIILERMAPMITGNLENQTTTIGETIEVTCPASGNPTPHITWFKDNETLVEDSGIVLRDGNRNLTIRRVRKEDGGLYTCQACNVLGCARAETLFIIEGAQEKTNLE
T3 sequence (P35968 20-764): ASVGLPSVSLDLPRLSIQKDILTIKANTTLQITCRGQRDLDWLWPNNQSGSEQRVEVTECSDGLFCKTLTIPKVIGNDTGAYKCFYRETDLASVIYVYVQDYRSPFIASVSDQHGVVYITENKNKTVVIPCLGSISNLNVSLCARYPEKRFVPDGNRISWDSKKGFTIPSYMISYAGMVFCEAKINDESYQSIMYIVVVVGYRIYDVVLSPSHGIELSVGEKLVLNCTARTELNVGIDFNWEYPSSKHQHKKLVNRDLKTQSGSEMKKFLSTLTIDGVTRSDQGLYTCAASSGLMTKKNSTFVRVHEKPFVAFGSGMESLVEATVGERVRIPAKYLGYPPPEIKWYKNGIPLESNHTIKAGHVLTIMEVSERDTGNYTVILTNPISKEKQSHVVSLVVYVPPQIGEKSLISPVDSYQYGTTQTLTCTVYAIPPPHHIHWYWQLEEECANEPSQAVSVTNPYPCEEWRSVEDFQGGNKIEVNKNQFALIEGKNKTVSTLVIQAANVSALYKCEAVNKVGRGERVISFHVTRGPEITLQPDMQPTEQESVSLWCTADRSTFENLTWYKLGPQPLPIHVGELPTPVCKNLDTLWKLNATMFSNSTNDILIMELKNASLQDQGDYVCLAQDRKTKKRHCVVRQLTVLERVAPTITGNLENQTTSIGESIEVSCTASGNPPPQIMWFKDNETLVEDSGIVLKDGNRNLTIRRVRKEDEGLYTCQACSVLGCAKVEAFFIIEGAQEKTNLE
T1 sequence (P35968 20-1356): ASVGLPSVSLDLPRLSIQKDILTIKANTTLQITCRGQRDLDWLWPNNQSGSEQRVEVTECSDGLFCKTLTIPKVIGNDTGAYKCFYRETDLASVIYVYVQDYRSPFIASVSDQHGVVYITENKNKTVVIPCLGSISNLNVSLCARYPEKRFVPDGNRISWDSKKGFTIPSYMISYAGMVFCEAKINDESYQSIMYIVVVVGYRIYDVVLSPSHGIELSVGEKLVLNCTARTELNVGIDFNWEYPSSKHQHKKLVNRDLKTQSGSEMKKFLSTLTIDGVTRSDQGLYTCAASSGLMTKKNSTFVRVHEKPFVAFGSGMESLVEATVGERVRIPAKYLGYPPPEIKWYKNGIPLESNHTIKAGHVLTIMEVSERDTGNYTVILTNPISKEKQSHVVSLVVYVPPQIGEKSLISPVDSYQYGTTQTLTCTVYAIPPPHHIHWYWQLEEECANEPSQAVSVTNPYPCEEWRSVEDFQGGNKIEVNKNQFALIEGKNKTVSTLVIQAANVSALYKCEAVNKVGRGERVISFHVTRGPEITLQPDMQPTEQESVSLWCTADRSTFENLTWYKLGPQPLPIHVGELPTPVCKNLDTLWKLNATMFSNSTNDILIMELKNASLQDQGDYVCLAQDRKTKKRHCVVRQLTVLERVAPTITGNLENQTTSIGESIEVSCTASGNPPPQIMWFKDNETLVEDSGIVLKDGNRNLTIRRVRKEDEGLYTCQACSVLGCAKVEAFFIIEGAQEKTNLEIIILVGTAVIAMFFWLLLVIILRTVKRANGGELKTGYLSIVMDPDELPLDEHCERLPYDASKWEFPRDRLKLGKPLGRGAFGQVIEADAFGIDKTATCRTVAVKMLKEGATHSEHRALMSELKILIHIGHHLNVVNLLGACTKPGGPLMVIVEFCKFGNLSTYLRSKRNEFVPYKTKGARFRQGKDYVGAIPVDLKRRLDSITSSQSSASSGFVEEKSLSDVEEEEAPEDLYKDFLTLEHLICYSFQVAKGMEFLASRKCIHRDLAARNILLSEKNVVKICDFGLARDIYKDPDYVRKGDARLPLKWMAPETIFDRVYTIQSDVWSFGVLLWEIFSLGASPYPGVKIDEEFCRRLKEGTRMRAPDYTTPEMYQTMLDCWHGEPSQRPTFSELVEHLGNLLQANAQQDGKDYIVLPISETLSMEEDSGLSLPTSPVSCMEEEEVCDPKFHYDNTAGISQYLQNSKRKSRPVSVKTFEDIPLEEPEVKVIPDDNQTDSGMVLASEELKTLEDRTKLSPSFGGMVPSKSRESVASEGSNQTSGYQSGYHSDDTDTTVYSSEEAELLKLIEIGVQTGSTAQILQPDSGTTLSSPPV
T5 sequence (A0A2K5VE63 entry or part of it): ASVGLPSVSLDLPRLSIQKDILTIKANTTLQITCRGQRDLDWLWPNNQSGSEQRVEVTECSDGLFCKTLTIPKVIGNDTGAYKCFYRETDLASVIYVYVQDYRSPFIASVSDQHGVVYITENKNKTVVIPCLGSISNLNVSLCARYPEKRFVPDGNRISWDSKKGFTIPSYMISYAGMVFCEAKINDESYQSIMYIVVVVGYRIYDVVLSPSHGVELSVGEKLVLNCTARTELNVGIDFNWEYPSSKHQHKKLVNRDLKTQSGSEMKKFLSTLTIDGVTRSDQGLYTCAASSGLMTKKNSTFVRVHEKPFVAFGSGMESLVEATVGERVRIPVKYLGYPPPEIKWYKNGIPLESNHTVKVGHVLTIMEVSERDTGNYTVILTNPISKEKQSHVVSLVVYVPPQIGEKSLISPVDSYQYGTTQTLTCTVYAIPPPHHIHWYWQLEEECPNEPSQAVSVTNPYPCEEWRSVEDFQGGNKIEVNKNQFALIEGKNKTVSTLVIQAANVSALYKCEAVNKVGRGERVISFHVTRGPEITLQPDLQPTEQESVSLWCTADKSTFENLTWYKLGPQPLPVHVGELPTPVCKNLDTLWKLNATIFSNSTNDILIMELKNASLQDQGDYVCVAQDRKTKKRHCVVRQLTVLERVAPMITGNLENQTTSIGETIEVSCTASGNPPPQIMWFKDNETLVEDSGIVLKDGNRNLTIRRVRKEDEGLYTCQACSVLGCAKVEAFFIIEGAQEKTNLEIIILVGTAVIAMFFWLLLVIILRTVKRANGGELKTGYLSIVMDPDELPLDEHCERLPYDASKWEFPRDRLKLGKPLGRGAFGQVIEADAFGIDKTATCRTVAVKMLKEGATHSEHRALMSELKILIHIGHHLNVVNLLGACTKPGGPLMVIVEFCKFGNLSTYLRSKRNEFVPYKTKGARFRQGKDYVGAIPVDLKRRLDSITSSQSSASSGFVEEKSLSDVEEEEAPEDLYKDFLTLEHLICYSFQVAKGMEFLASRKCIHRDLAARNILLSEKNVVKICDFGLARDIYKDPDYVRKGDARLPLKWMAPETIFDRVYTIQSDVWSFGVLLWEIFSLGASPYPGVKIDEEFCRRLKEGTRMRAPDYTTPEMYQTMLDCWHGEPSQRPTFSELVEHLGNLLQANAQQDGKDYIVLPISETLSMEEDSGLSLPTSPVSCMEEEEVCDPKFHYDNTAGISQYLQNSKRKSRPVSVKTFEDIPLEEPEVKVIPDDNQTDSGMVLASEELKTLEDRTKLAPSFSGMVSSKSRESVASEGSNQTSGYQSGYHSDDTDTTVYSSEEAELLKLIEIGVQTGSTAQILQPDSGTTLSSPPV

Binder	HUVEC survival, Maximum Inhibition at 50 nM (% Inhibition), Average (human KDR [1]) [%]	HUVEC survival, Maximum Inhibition at 50 nM (% Inhibition), N = 1 (human KDR [1]) [%]	HUVEC survival, Maximum Inhibition at 50 nM (% Inhibition), N = 2 (human KDR [1]) [%]	ELISA reading (soluble KDR Ig4-7 domain [2])	ELISA reading [3]	ELISA reading [4]	ELISA reading (soluble KDR Ig4-7 domain [5])	KDR tyrosine phosphorylation in HUVEC, EC50 (nM), Average (human KDR [6]) [nM]	KDR tyrosine phosphorylation in HUVEC, EC50 (nM), N = 1 (human KDR [6]) [nM]	KDR tyrosine phosphorylation in HUVEC, EC50 (nM), N = 2 (human KDR [6]) [nM]	KDR tyrosine phosphorylation in HUVEC, Maximum Inhibition at 100 nM (% Inhibition), Average (human KDR [6]) [%]	KDR tyrosine phosphorylation in HUVEC, Maximum Inhibition at 100 nM (% Inhibition), N = 1 (human KDR [6]) [%]	KDR tyrosine phosphorylation in HUVEC, Maximum Inhibition at 100 nM (% Inhibition), N = 2 (human KDR [6]) [%]	FACS Geometric Mean Fluorescence (bound VEGF165) (human KDR [7])	% Inhibition (human KDR [8]) [%]	ELISA reading [9]	Kd (human KDR [10]) [nM]	ELISA reading [11]	ELISA reading (soluble KDR Ig4-7 domain [12])	ELISA reading [13]	also measured
B1	57	55	59	0.609	0.072	0.753	3.04	1.1	1.2	1.1	86	86	86	81	40	1.99	0.2	0.178	2.14	2.1	ELISA reading [14]: 3.12; 6-keto Prostaglandin F1α release, EC50 (nM), Average (human KDR [15]): 3840 nM; 6-keto Prostaglandin F1α release, EC50 (nM), N = 1 (human KDR [15]): 17 nM; 6-keto Prostaglandin F1α release, EC50 (nM), N = 2 (human KDR [15]): 7670 nM; 6-keto Prostaglandin F1α release, Maximum Inhibition (% Inhibition), Average (human KDR [15]): 53%; 6-keto Prostaglandin F1α release, Maximum Inhibition (% Inhibition), N = 1 (200 nM) (human KDR [15]): 31%; 6-keto Prostaglandin F1α release, Maximum Inhibition (% Inhibition), N = 2 (333 nM) (human KDR [15]): 76%; FACS Geometric Mean Fluorescence (cynomolgus KDR): 108
B2	90	97	82	1.45	0.09	1.58	3.47	2.2	2.1	2.3	81	78	84	97	27	3.02	0.8	0.304	2.8	2.75	ELISA reading [14]: 3.39; 6-keto Prostaglandin F1α release, EC50 (nM), Average (human KDR [15]): 12.1 nM; 6-keto Prostaglandin F1α release, EC50 (nM), N = 1 (human KDR [15]): 8.1 nM; 6-keto Prostaglandin F1α release, EC50 (nM), N = 2 (human KDR [15]): 16.2 nM; 6-keto Prostaglandin F1α release, Maximum Inhibition (% Inhibition), Average (human KDR [15]): 54%; 6-keto Prostaglandin F1α release, Maximum Inhibition (% Inhibition), N = 1 (200 nM) (human KDR [15]): 37%; 6-keto Prostaglandin F1α release, Maximum Inhibition (% Inhibition), N = 2 (333 nM) (human KDR [15]): 72%; FACS Geometric Mean Fluorescence (cynomolgus KDR): 68.4

Source: patent US20100260765A1 (AstraZeneca / MedImmune, published 2010)
